From PMC9177848

How the values were obtained:
[1] = molecular target: LgBiT-mini-Gs fusion protein; experiment: NanoBiT mini-Gαs recruitment assay; settings: agonist fenoldopam; three independent experiments; parent: est. 7.2; read off a plot
[2] = molecular target: smBiT-β-arrestin (an N-terminal smBiT) (UniProt P32121); experiment: NanoBiT β-arrestin recruitment assay; settings: highest fenoldopam concentration shown, log[Fenoldopam] M about -4.3; parent: est. 2.7; read off a plot

Row | Substance | other: pEC50 [1] | response [2]
1 | D1R-SmBiT fusion protein (WT) (from UniProt P21728) F289A | 6.1 | –
2 | D1R-SmBiT fusion protein (WT) (from UniProt P21728) W321F | 6.5 | –
3 | D1R-SmBiT fusion protein (WT) (from UniProt P21728) S202A | 6.6 | –
4 | D1R-SmBiT fusion protein (WT) (from UniProt P21728) L190A | 5 | –
5 | D1R-SmBiT fusion protein (WT) (from UniProt P21728) F288A | 6 | –

Other lines, results leading:

Row | other: pEC50 [1] | response [2] | Substance
6 | 5.4 | – | D1R-SmBiT fusion protein (WT) (from UniProt P21728) N292L
7 | – | 1.2 fold change | D1R-LgBit (WT) (from UniProt P21728) K81V
8 | 6 | – | D1R-SmBiT fusion protein (WT) (from UniProt P21728) K81V
9 | 5.1 | – | D1R-SmBiT fusion protein (WT) (from UniProt P21728) S198G
